Publication PMC7473711, “Characterization of the different oligomeric states of the DAN family antagonists SOSTDC1 and SOST” (Biochemical Journal, 2020)

B1: Gremlin2 (natural protein)
chain: RKNRPAGAIPSPYKDGSSNNSERWHHQIKEVLASSQEALVVTERKYLKSDWCKTQPLRQTVSEEGCRSRTILNRFCYGQCNSFYIPRHVKKEEDSFQSCAFCKPQRVTSVIVELECPGLDPPFRIKKIQKVKHCRCMSVNLSDSDKQ
notes: Gremlin2 (Grem2); also called Grem2
B2: human SOSTDC1 (Sclerostin domain containing protein 1) (natural protein, UniProt Q6X4U4 24-206, looked up)
chain: FKNDATEILYSHVVKPVPAHPSSNSTLNQARNGGRHFSNTGLDRNTRVQVGCRELRSTKYISDGQCTSISPLKELVCAGECLPLPVLPNWIGGGYGTKYWSRRSSQEWRCVNDKTRTQRIQLQCQDGSTRTYKITVVTACKCKRYTRQHNESSHNFESMSPAKPVQHHRERKRASKSSKHSMS
modifications: native glycosylation
notes: signal peptide in the construct; SOSTDC1, human, full-length gene made by gene synthesis and codon optimised (GenScript), in pcDNA4 (pCDNA4-hSOSTDC1-PP-Myc-His); secreted into conditioned medium; after cleavage the residues LEVLFQ probably stay on the C-terminus (surmised); The secreted protein probably lacks its signal peptide (surmised); also called hSOSTDC1; Wise; source: Expi293F, transiently …
B3: chicken SOSTDC1 (Sclerostin domain containing protein 1), residues 23-206 (natural protein, UniProt Q6VYA3 23-206, looked up)
chain: AFKNDATEILYSHVVKPAPASPSSNSTLNQARNGGRHYAGTGSDRNNRVQVGCRELRSTKYISDGQCTSINPLKELVCAGECLPLPLLPNWIGGGYGTKYWSRRSSQEWRCVNDKTRTQRIQLQCQDGSIRTYKITVVTACKCKRYTRQHNESSHNFEGTSQAKPVQHHKERKRASKSSKHSTS
notes: SOSTDC1, chicken, amino acid residues 23-206, cloned into pET21a from pCS2-Flag-cSOSTDC1; 20.7 kDa; The vector is pET21a; also called cSOSTDC1; Wise

How the values were obtained:
[1] = target: the molecule itself; assay: SEC; protein that was monomeric at low pH (pH 3.0) neutralised to pH 7.5 and run again on SEC
[2] = target: the molecule itself; assay: SEC; analytical SEC, Superdex S75 HR 10/300, room temperature, 0.5 ml/min, 20 mM HEPES, 1 M NaCl, pH 7.5; 100-150 µg protein loaded; self-association

Protein	stoichiometry N [1]	stoichiometry N [2]
B1	2	–
B2	–	2
B3	–	2
